Test system: His-DLA2 (RBP63, Cr-E2) (Chlamydomonas reinhardtii)
Test: filter binding
Conditions: 5 mM Mg2+; 6.7 pM RNA; 20 mM HEPES/KOH pH 7.8, 5 mM MgCl2, 60 mM KCl, RT; 5 min (UV cross-linking, 254 nm, 1 J/cm2) or 15 min (filter binding); native fractions dialyzed to 30 mM …

**Q.** For psbA 5' UTR RNA, which Kd is on record?
**A.** The Kd was 0.051 µM.
